Assay results published in patent US20160009823A1 (Hoffmann-La Roche, published 2016).

What was measured:
[1] = target: T1, human CD33-Fc fusion (human, UniProt P20138 18-259); assay: SPR, <CD33>-<DIG> on human CD33-Fc fusion as ligand, then DIG-siRNA
T1 construct: not shown: Fc part not described

[2] = target: T2, mouse VEGFR2-Fc; assay: SPR, drawn table under the head 'Affinity for DIG-siRNA' with a Capture column
T2 chain: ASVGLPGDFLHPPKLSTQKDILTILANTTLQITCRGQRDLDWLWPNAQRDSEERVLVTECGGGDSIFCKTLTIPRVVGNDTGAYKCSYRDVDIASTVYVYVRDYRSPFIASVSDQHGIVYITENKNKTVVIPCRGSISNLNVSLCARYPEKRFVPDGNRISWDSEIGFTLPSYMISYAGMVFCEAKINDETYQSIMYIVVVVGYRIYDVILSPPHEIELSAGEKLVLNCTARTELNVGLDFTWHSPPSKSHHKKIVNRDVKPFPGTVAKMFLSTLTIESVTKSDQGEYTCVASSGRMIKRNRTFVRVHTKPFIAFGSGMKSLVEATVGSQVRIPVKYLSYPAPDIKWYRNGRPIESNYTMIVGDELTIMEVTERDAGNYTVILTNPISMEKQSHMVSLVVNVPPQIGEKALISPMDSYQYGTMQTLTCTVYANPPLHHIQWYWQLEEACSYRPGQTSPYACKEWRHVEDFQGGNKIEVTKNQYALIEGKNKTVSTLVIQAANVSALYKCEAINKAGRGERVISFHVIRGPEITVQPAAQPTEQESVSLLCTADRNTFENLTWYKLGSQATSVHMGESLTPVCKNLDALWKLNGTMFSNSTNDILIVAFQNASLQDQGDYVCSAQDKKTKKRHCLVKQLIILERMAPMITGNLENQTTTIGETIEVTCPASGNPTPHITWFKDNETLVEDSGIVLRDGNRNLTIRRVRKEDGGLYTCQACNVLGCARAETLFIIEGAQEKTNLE

[3] = target: T3, human VEGFR2-Fc; assay: as above
T3 chain: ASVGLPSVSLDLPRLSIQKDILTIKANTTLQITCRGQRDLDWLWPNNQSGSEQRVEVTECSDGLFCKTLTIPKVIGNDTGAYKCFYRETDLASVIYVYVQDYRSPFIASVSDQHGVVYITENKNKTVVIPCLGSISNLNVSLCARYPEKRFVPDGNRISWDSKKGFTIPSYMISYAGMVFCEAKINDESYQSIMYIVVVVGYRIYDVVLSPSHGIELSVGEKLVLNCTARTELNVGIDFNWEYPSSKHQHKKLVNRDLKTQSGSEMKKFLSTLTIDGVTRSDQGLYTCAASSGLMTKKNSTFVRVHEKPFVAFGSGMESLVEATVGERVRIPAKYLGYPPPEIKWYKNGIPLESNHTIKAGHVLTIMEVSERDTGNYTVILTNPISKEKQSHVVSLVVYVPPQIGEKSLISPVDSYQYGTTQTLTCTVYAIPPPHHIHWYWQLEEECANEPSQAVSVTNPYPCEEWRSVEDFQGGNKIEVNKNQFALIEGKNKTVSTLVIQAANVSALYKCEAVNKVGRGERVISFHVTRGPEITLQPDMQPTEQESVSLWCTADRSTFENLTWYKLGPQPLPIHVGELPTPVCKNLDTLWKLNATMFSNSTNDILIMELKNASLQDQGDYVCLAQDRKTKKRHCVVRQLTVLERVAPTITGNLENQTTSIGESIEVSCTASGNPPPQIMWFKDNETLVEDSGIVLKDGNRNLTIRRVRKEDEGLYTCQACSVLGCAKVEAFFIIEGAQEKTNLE

[4] = target: T4, recombinantly produced soluble extracellular domain of the RTK Her2 (UniProt P04626 23-652); assay: SPR (BiaCore), zoom; AKH-5 captured, Her2 and siRNA-DIG in both orders
T4 construct: extracellular domain; also called Her2-ECD; Her2ECD

[5] = target: mono-digoxygenated protein DIG-myoglobin; assay: SPR (Biacore), DIG-Myoglobin as analyte
Chain of mono-digoxygenated protein DIG-myoglobin (P68082 2-154): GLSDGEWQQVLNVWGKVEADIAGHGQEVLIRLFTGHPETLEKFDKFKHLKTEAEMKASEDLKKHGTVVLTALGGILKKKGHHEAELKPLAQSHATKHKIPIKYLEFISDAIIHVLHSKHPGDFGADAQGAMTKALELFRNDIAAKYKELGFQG

[6] = target: mono-digoxygenated protein DIG-myoglobin; assay: SPR (Biacore), DIG-Myoglobin as analyte, replicate
[7] = target: digoxygenated protein Dig-BP4; assay: SPR (Biacore), antibody captured by anti-human IgG, DIG-BP4 as analyte
[8] = target: digoxygenated protein Dig-BP4; assay: SPR (Biacore), antibody captured by anti-mouse IgG, DIG-BP4 as analyte
[9] = target: mono-digoxygenated protein DIG-myoglobin; assay: SPR (Biacore), DIG-Myoglobin as analyte; remark: listed apart in the source
[10] = target: digoxygenated protein Dig-BP4; assay: SPR (Biacore); unit differs from Table 3 (33 pM)

T1 sequence (P20138 18-259): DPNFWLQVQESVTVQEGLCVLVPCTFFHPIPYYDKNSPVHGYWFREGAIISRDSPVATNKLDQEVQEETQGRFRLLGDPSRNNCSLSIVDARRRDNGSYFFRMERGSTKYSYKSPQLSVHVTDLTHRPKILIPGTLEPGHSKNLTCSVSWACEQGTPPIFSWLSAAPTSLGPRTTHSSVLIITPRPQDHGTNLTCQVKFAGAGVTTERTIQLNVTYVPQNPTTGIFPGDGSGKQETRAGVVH

B1: bispecific <CD33>-<DIG> antibody (bispecific antibody, human IgG1, kappa)
heavy: not shown
light: DIQLTQSPSTLSASVGDRVTITCRASESLDNYGIRFLTWFQQKPGKAPKLLMYAASNQGSGVPSRFSGSGSGTEFTLTISSLQPDDFATYYCQQTKEVPWSFGQGGTKVEVKEIKRTVAAPSVFIFPPSDEQLKSGTASVVCLLNNFYPREAKVQWKVDNALQSGNSQESVTEQDSKDSTYSLSSTLTLSKADYEKHKVYACEVTHQGLSSPVTKSFNRGEC
- binding result [1]: binds

B2: <VEGFR2(D1F7)-DIG>_001 (bispecific antibody, human IgG1, kappa)
heavy: not shown
light: QSVLTQPPSASGTPGQRVTISCSGSTSNIGTNTANWFQQLPGTAPKLLIHNNNQRPSGVPDRFSGSKSGTSASLAISGLQSEDEADYYCAAWDDSLNGHWVFGGGTKLTVLRTVAAPSVFIFPPSDEQLKSGTASVVCLLNNFYPREAKVQWKVDNALQSGNSQESVTEQDSKDSTYSLSSTLTLSKADYEKHKVYACEVTHQGLSSPVTKSFNRGEC
- binding result [2]: binds
- binding result [3]: binds

B3: AKH-5 (bispecific antibody)
chain: QVQLLQSGAELKKPGESLKISCKGSGYSFTSYWIAWVRQMPGKGLEYMGLIYPGDSDTKYSPSFQGQVTISVDKSVSTAYLQWSSLKPSDSAVYFCARHDVGYCSSSNCAKWPEYFQHWGQGTLVTVSSGGGGSGGGGSGGGGSGGGGSQSVLTQPPSVSAAPGQKVTISCSGSSSNIGNNYVSWYQQLPGTAPKLLIYGHTNRPAGVPDRFSGSKSGTSASLAISGFRSEDEADYYCASWDYTLSGWVFGGGTKLTVLGGGGGSGGSLAALTAHQACHLPLETFTRHRQPRGWEQLEQCGYPVQRLVALYLAARLSWNQVDQVIRNALASPGSGGDLGEAIREQPEQARLALTLAAAESERFVRQGTGNDGGGGSGGGGSQVQLVESGGGLVKPGGSLRLSCAASGFTFSDYAMSWIRQAPGKCLEWVSSINIGATYIYYADSVKGRFTISRDNAKNSLYLQMNSLRAEDTAVYYCARPGSPYEYDKAYYSMAYWGQGTTVTVSSGGGGSGGGGSGGGGSGGGGSDIQMTQSPSSLSASVGDRVTITCRASQDIKNYLNWYQQKPGKAPKLLIYYSSTLLSGVPSRFSGSGSGTDFTLTISSLQPEDFATYYCQQSITLPPTFGCGTKVEIKHHHHHH
notes: also called <HER2> scFv-PExII-<DIG> scFv-His6; drawn as <Her2> - PExI - <DIG> - 6xHis
- binding result [4]: binds

B4: recombinant humanized <Dig> IgG antibody (antibody, V domains shown)
VH: QVQLVESGGGLVKPGGSLRLSCAASGFTFSDYAMSWIRQAPGKGLEWVSSINIGATYIYYADSVKGRFTISRDNAKNSLYLQMNSLRAEDTAVYYCARPGSPYEYDKAYYSMAYWGQGTTVTVSS
VL: DIQMTQSPSSLSASVGDRVTITCRASQDIKNYLNWYQQKPGKAPKLLIYYSSTLLSGVPSRFSGSGSGTDFTLTISSLQPEDFATYYCQQSITLPPTFGGGTKVEIKR
notes: also called hu<DIG> IgG; <DIG>hu2; not shown: hinge-CH2-CH3 of human IgG1
- Kd [5]: 15.8 nM
- koff [5]: 0.00982 s⁻¹
- kon [5]: 620000 M⁻¹ s⁻¹
- Kd [6]: 11.8 nM
- koff [6]: 0.00881 s⁻¹
- kon [6]: 749000 M⁻¹ s⁻¹
- Kd [7]: < 0.076 nM

B5: hybridoma-derived murine <Dig> 19-11 antibody (antibody, V domains shown)
VH: EVQLVESGGGLVKPGGSLKLSCAVSGFTFSDYAMSWIRQTPENRLEWVASINIGATYAYYPDSVKGRFTISRDNAKNTLFLQMSSLGSEDTAMYYCARPGSPYEYDKAYYSMAYWGPGTSVTVSS
VL: DVQMTQSTSSLSASLGDRVTISCRASQDIKNYLNWYQQKPGGTVKLLIYYSSTLLSGVPSRFSGRGSGTDFSLTITNLEREDIATYFCQQSITLPPTFGGGTKLEIK
notes: also called murine DIG-IgG 19-11; <DIG>M-19-11
- Kd [8]: 0.033 nM
- Kd [5]: 0.386 nM
- koff [5]: 0.000676 s⁻¹
- kon [5]: 1.75e+06 M⁻¹ s⁻¹
- Kd [6]: 0.295 nM
- koff [6]: 0.000675 s⁻¹
- kon [6]: 2.28e+06 M⁻¹ s⁻¹
- fold better affinity than <DIG>-hu2 and the disulfide-stabilized <DIG> scFv [9]: ~100 fold
- Kd [10]: 33 nM
